Source: patent US20130243795A1 (Janssen / Centocor, published 2013)
Read-outs that look alike come from different tables or passages of the source.

Legend:
[1] = target: T1, Human CD27, full length on the cell surface (human, UniProt P26842 21-260); test: cell-based or functional assay
[2] = target: T1, Human CD27, full length on the cell …; test: cell-based or functional assay; remark: listed apart in the source
[3] = target: T2, Recombinant human CD27/Fc chimera (R&D Systems, Cat#382-CD) (human, UniProt P26842 20-191); test: inhibition of IM-9 (CD70+) cell binding to immobilized CD27/Fc
T2 construct: extracellular domain; bought protein; also called huCD27-Fc; Hu CD27 Fc; Fc part of the bought chimera not given
T2 sequence (P26842 20-191, change not shown): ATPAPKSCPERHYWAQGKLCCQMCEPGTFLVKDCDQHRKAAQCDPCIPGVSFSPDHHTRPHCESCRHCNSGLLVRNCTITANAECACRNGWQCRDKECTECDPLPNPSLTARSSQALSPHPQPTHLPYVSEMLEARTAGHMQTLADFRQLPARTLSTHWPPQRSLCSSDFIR

[4] = target: T3, Human CD27 ECD, monomeric soluble (construct limits not stated) (human, UniProt P26842 20-191); test: Biacore SPR; mAb captured via anti-mouse Fc; CD27 ECD as analyte; 25 C
T3 construct: extracellular domain; target of the Biacore assays; also called monomeric soluble CD27; CD27-His
T3 sequence (P26842 20-191): as the sequence (P26842 20-191, change not shown) above

[5] = target: T1, Human CD27, full length on the cell …; test: cell-based or functional assay; remark: listed apart in the source
[6] = target: T1, Human CD27, full length on the cell …; test: cell-based or functional assay; remark: listed apart in the source
[7] = target: T1, Human CD27, full length on the cell …; test: cell-based or functional assay; remark: listed apart in the source
[8] = target: T3, Human CD27 ECD, monomeric soluble …; test: Biacore SPR, purified mAb
[9] = target: T3, Human CD27 ECD, monomeric soluble …; test: Biacore SPR, purified mAb, CD27 ECD
[10] = target: T4, Human CD27 ECD truncated (ECD 1-121, cleavage site, His6) (human); test: ProteOn SPR; mAb captured via anti-human Fc; CD27 ECD as analyte
T4 construct: also called human CD27 ECD with His Tag; CD27-His
T4 chain: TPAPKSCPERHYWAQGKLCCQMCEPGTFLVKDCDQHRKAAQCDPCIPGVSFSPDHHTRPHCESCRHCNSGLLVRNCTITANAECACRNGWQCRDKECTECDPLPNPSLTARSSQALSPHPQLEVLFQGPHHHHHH

[11] = target: T4, Human CD27 ECD truncated (ECD 1-121, …); test: ELISA of culture supernatants; binding to CD27 ECD; signal relative to the parent
[12] = target: T3, Human CD27 ECD, monomeric soluble …; test: Biacore SPR, purified mAb; remark: listed apart in the source
[13] = target: T4, Human CD27 ECD truncated (ECD 1-121, …); test: ProteOn SPR, purified mAb, CD27-His
[14] = target: T3, Human CD27 ECD, monomeric soluble …; test: Biacore SPR, purified mAb; reference M160
[15] = target: T5, Human CD27 ECD (ECD 1-173, His6) (human, UniProt P26842 21-193, biotinylated on amine residues (NHS-ester) where used biotinylated); test: Fab format, pIX display and binding
T5 construct: also called biotinylated human CD27 ECD

[16] = target: T4, Human CD27 ECD truncated (ECD 1-121, …); test: ProteOn SPR, purified mAb, CD27-His
[17] = target: T3, Human CD27 ECD, monomeric soluble …; test: Biacore SPR, purified mAb; reference M166
[18] = target: T1, Human CD27, full length on the cell …; test: cell-based or functional assay; remark: listed apart in the source
[19] = target: T3, Human CD27 ECD, monomeric soluble …; test: Biacore SPR, purified mAb; remark: listed apart in the source

B1: C2186 (antibody, V domains shown)
VH: QVQLQQPGAELVKPGASVKLSCKASGYTFTNYWMNWVKQRPGRGLEWIGRIHPSDSETHYNQNFKSKATLTVDKSSSTAYIQLSSLTSEDSAVYYCARPVLYGDYGFPCWGQGTLVTVSA
VL: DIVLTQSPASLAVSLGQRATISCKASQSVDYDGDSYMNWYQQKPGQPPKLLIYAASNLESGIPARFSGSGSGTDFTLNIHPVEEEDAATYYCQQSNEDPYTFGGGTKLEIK
[1]
  Agonism at 50 ug/ml (fold-increase in reporter gene signal relative to isotype control): 2.55 fold
  NF-kB reporter IC50: 0.105 µg/mL
[2]
  Plasma blast differentiation % Inhibition at 2.5 ug/ml: 93%
  T-Cell Proliferation % Inhibition at highest concentration (30 ug/ml): 65.3%
  T-Cell Proliferation - CD4+ Cells IC50: 0.775 µg/mL
[3]
  IC50: 0.059 µg/mL
[4]
  Kd: 2.55 nM

B2: C2191 (antibody, V domains shown)
VH: EVKLVESGGGLVKPGGSLKLSCAASGFTFSSYTMSWVRQTPEKRLEWVAYISSGGGNTYYPDSVKGRFTISRDNARNTLYLQMSSLRSEDTAMYYCSRHRGNPFDYWGQGTTLTVSS
VL: DIVLTQSPASLAVSLGQRATISCRASKSVSTSGYSFMHWYQQKPGQPPKLLIYLASNLESGVPARFSGSGSGTDFTLNIHPVEEEDAATYYCQHSRELPWTFGGGTKLEIK
notes: also called C2191 hybridoma mAb
[1]
  Agonism at 50 ug/ml (fold-increase in reporter gene signal relative to isotype control): 3.05 fold
  NF-kB reporter IC50: 0.08 µg/mL
[2]
  Plasma blast differentiation % Inhibition at 2.5 ug/ml: 105%
  T-Cell Proliferation % Inhibition at highest concentration (30 ug/ml): 58.3%
  T-Cell Proliferation - CD4+ Cells IC50: 0.3 µg/mL
[3]
  IC50: 0.059 µg/mL
[4]
  Kd: 2.62 nM

B3: M41 (antibody, human IgG1, V domains shown)
VH: EVKLVESGGGLVKPGGSLKLSCAASGFTFSSYTMSWVRQTPEKRLEWVAYISSGGGNTYYPDSVKGRFTISRDNARNTLYLQMSSLRSEDTAMYYCSRHRGNPFDYWGQGTTLTVSS
VL: DIVLTQSPASLAVSLGQRATISCRASKSVSTSGYSFMHWYQQKPGQPPKLLIYLASNLESGVPARFSGSGSGTDFTLNIHPVEEEDAATYYCQHSRELPWTFGGGTKLEIK
notes: chimeric; also called C2191 parent; C2191 parent chimera
[5]
  NFkB IC50: 0.3 nM
[6]
  NFkB IC50: 45 pM
[7]
  NF-kB Assay IC50: 2300 pM
[8]
  Kd: 23.7 nM
  koff: 0.0103 s⁻¹
  kon: 435000 M⁻¹ s⁻¹
[9]
  Kd: 13.7 nM
[10]
  Kd: 10.3 nM
[11]
  ELISA signal: 1

B4: M169 (antibody, V domains shown)
VH: EVQLVQSGAEVKKPGESLKISCKGSGYAFSSSWMNWVRQMPGKGLEWMGRIYSGDGDTNYNGKFKGQVTISADKSISTAYLQWSSLKASDTAMYYCARSDYYGDYGFAYWGQGTLVTVSS
VL: DIQMTQSPSSLSASVGDRVTITCKASQSVDYAGDSFMNWYQQKPGKAPKLLIYAASNLESGVPSRFSGSGSGTDFTLTISSLQPEDFATYYCQQSNEDPYTFGQGTKVEIK
notes: isotype not restated (path 2 mAbs were IgG4 Ser to Pro, Ala/Ala / kappa); also called H221, L219; CM169
[12]
  Kd: 0.069 nM
  koff: 0.000102 s⁻¹
  kon: 1.48e+06 M⁻¹ s⁻¹
[13]
  Kd: 0.059 nM
  koff: 0.000139 s⁻¹
  kon: 2.36e+06 M⁻¹ s⁻¹
[14]
  fold improvement in KD against the corresponding VH1-46 variant: 2 fold

B5: M55 (VH1-46/Vk012 HFR Fab of C2177) (Fab, V domains shown)
VH: QVQLVQSGAEVKKPGASVKVSCKASGYAFSSSWMNWVRQAPGQGLEWMGRIYPGDGDTNYNGKFKGRVTMTRDTSTSTVYMELSSLRSEDTAVYYCARSDYYGDYGFAYWGQGTLVTVSS
VL: DIQMTQSPSSLSASVGDRVTITCKASQSVDYAGDSYMNWYQQKPGKAPKLLIYAASNLESGVPSRFSGSGSGTDFTLTISSLQPEDFATYYCQQSNEDPYTFGQGTKLEIK
notes: Fab with human CH1 and Ck in the pIX phage display vector; also called H25/L36; parent HFR Fab
[15]
  binding result: binds

B6: M671 (antibody, V domains shown)
VH: EVQLVQSGAEVKKPGESLKISCKGSGYAFSSSWMNWVRQMPGKGLEWMGRIYSGDADTNYNQKFKGQVTISADKSISTAYLQWSSLKASDTAMYYCARSDYYGDYGFAYWGQGTLVTVSS
VL: DIQMTQSPSSLSASVGDRVTITCKASQSVDYAGESFMNWYQQKPGKAPKLLIYAASNLESGVPSRFSGSGSGTDFTLTISSLQPEDFATYYCQQSNEDPYTFGQGTKVEIK
notes: isotype not restated (path 2); also called H258,L266
[16]
  fold lower KD against the parental mAb M169: ~2 fold
[13]
  Kd: 0.039 nM
  koff: 9.73e-05 s⁻¹
  kon: 2.52e+06 M⁻¹ s⁻¹

B7: M668 (antibody, V domains shown)
VH: QVQLVQSGAEVKKPGASVKVSCKASGYAFSSSWMNWVRQAPGQGLEWMGRIYSGDADTNYAQKFKGRVTMTRDTSTSTVYMELSSLRSEDTAVYYCARSDYYGDYGFAYWGQGTLVTVSS
VL: DIQMTQSPSSLSASVGDRVTITCKASQSVDYAGESFMNWYQQKPGKAPKLLIYAASNLESGVPSRFSGSGSGTDFTLTISSLQPEDFATYYCQQSNEDPYTFGQGTKVEIK
notes: isotype not restated (path 2); also called H255,L266
[16]
  fold lower KD against the parental mAb M160: ~2 fold
[13]
  Kd: 0.06 nM
  koff: 0.000129 s⁻¹
  kon: 2.14e+06 M⁻¹ s⁻¹

B8: M170 (antibody, V domains shown)
VH: EVQLVQSGAEVKKPGESLKISCKGSGYAFSSSWMNWVRQMPGKGLEWMGRIYSGDGDTNYNGKFKGQVTISADKSISTAYLQWSSLKASDTAMYYCARSDYYGDYGFAYWGQGTLVTVSS
VL: DIQMTQSPSSLSASVGDRVTITCKASQSVDYAHESFMNWYQQKPGKAPKLLIYAASNLESGVPSRFSGSGSGTDFTLTISSLQPEDFATYYCQQSNEDPYTFGQGTKVEIK
notes: isotype not restated (path 2); also called H221, L217
[12]
  Kd: 0.07 nM
  koff: 0.000116 s⁻¹
  kon: 1.66e+06 M⁻¹ s⁻¹
[17]
  fold improvement in KD against the corresponding VH1-46 variant: 2 fold

B9: M91 (antibody, human IgG1, V domains shown)
VH: QVQLVESGGGLVKPGGSLRLSCAASGFTFSSYTMSWIRQAPGKGLEWVSYISSGGGNTYYPDSVKGRFTISRDNAKNSLYLQMNSLRAEDTAVYYCARHRGNPFDYWGQGTLVTVSS
VL: DIQMTQSPSSLSASVGDRVTITCRASKSVSTSGYSFMHWYQQKPGKAPKLLIYLASNLESGVPSRFSGSGSGTDFTFTISSLQPEDIATYYCQHSRELPWTFGQGTKVEIK
notes: also called H31/L42; C2191 HFR variant
[5]
  NFkB IC50: 0.28 nM
[10]
  Kd: 7.9 nM
[11]
  ELISA signal: 1.09

B10: Parent Fab (VH3-23/Vk012 HFR Fab of C2191) (Fab, V domains shown)
VH: EVQLLESGGGLVQPGGSLRLSCAASGFTFSSYTMSWVRQAPGKGLEWVSYISSGGGNTYYPDSVKGRFTISRDNSKNTLYLQMNSLRAEDTAVYYCARHRGNPFDYWGQGTLVTVSS
VL: DIQMTQSPSSLSASVGDRVTITCRASKSVSTSGYSFMHWYQQKPGKAPKLLIYLASNLESGVPSRFSGSGSGTDFTLTISSLQPEDFATYYCQHSRELPWTFGQGTKVEIK
notes: Fab with human CH1 and Ck in the pIX phage display vector; also called H39/L40; parental HFR Fab
[15]
  binding result: binds

B11: C2177 (antibody, V domains shown)
VH: QVQLQQSGPELVKPGASVKISCKASGYAFSSSWMNWVKQRPGKGLEWIGRIYPGDGDTNYNGKFKGKATLTADKSSSTAYMQLSSLTSEDSAVYFCARSDYYGDYGFAYWGQGTLVTVSA
VL: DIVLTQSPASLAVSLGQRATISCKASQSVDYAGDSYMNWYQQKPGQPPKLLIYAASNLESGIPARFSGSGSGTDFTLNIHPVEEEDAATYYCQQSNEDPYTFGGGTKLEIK
notes: also called C2177 hybridoma mAb
[1]
  Agonism at 50 ug/ml (fold-increase in reporter gene signal relative to isotype control): 1.85 fold
  NF-kB reporter IC50: 0.04 µg/mL
[2]
  Plasma blast differentiation % Inhibition at 2.5 ug/ml: 78%
  T-Cell Proliferation % Inhibition at highest concentration (30 ug/ml): 75.4%
  T-Cell Proliferation - CD4+ Cells IC50: 0.245 µg/mL
[3]
  IC50: 0.063 µg/mL
[4]
  Kd: 3.07 nM

B12: C2192 (antibody, V domains shown)
VH: QVQLQQSGPELVKPGASVKISCKASGYAFSSSWMNWVKQRPGKGLEWIGRIYPGDGDTNYNGKFKGKATLTADKSSSTAYMQLSSLTSEDSAVYFCARRWDGGNYFFDYWGQGTTLTVSS
VL: DIVMTQSHKFMSTSVGDRVSITCMASQDVGTAVAWYQRRPGQSPKLLIYWTSTRHTGVPDRFTGSGSGTDFTLTISNVQSEDLADYFCQQYSSYPLTFGSGTKLEIK
[1]
  Agonism at 50 ug/ml (fold-increase in reporter gene signal relative to isotype control): 5.39 fold
  NF-kB reporter IC50: 0.232 µg/mL
[2]
  Plasma blast differentiation % Inhibition at 2.5 ug/ml: 74%
  T-Cell Proliferation % Inhibition at highest concentration (30 ug/ml): 75.7%
  T-Cell Proliferation - CD4+ Cells IC50: 0.445 µg/mL
[3]
  IC50: 0.054 µg/mL
[4]
  Kd: 0.21 nM

B13: M40 (antibody, human IgG1, V domains shown)
VH: QVQLQQSGPELVKPGASVKISCKASGYAFSSSWMNWVKQRPGKGLEWIGRIYPGDGDTNYNGKFKGKATLTADKSSSTAYMQLSSLTSEDSAVYFCARSDYYGDYGFAYWGQGTLVTVSA
VL: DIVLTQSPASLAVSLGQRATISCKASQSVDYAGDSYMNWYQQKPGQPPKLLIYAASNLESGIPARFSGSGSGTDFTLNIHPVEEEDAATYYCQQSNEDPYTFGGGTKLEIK
notes: chimeric; also called C2177 parent; C2177 parent chimera
[5]
  NFkB IC50: 0.14 nM
[18]
  NF-kB Assay IC50: 466 pM
[19]
  Kd: 1.24 nM
  koff: 0.00132 s⁻¹
  kon: 1.06e+06 M⁻¹ s⁻¹
[10]
  Kd: 0.96 nM
[11]
  ELISA signal: 1
